Measurements reported in patent US20110097340A1 (SCHERING, published 2011).
Where a chain is given by its changes, count along the chain named.

Columns and labels:
human VEGF165 [1] = molecular target: T1, human VEGF165 (human, UniProt P15692 207-395); assay: sandwich ELISA, antibody coated
Protocol: (§1) Mutants were transiently expressed in CHO-K1 cells, and cell supernatants were collected for binding analysis by ELISA.
(§2) The plate was blocked with 30% ChemiBlock™ reagent (Millipore) in PBS for one hour at room temperature, and 30, 60, or 100 μl of CHO-K1 culture supernatant for each mutant, or 1 μg/ml of wild-type hVEGF₁₂₁, recombinant hVEGF₁₆₅, or recombinant mVEGF₁₆₅, was added to appropriate wells. After one hour of incubation, the plate was washed and incubated with a biotinylated goat polyclonal anti-VEGF antibody for one hour at room temperature. Detection was performed with HRP-conjugated streptavidin, followed by TMB chromogenic substrate (Calbiochem) using manufacturer protocol.

hVEGF121-G92A = molecular target: T2, hVEGF121-G92A (human, UniProt P15692-9 27-147, G92A); assay: sandwich ELISA, antibody coated
T2 construct: Transiently expressed in CHO-K1 cells; culture supernatant used
T2 sequence (looked up): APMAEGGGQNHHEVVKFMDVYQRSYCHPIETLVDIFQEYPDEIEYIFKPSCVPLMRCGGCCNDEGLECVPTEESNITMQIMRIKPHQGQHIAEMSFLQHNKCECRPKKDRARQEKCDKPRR
Protocol: as §1, §2

hVEGF121-G88S = molecular target: T3, hVEGF121-G88S (human, UniProt P15692-9 27-147, G88S); assay: sandwich ELISA, antibody coated
T3 construct: Transiently expressed in CHO-K1 cells; culture supernatant used
T3 sequence (looked up): T2 sequence (looked up) with G88S, A92G
Protocol: as §1, §2

hVEGF121-Q89A = molecular target: T4, hVEGF121-Q89A (human, UniProt P15692-9 27-147, Q89A); assay: sandwich ELISA, antibody coated
T4 construct: Transiently expressed in CHO-K1 cells; culture supernatant used
T4 sequence (looked up): T2 sequence (looked up) with Q89A, A92G
Protocol: as §1, §2

hVEGF121-M81A = molecular target: T5, hVEGF121-M81A (human, UniProt P15692-9 27-147); assay: sandwich ELISA, antibody coated
T5 construct: Transiently expressed in CHO-K1 cells; culture supernatant used
T5 sequence (looked up): T2 sequence (looked up) with M81A, A92G
Protocol: as §1, §2

murine VEGF165 [2] = molecular target: T6, murine VEGF165 (murine, UniProt Q00731-2 27-190); assay: sandwich ELISA, antibody coated
T6 construct: also called mVEGF165; rMu-VEGF165
T6 sequence (looked up): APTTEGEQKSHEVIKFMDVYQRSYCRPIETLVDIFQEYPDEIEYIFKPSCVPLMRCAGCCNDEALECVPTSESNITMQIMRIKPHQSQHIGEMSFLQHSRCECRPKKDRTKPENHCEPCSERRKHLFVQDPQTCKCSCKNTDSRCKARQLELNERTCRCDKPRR
Protocol: as §1, §2

wild-type hVEGF121 = molecular target: T7, wild-type hVEGF121 (human, UniProt P15692-9 27-147); assay: sandwich ELISA, antibody coated
T7 sequence (looked up): T2 sequence (looked up) with A92G
Protocol: as §1, §2

human VEGF165 [3] = molecular target: T1, human VEGF165; assay: cell-based or functional assay
human VEGF165 [4] = molecular target: T1, human VEGF165; assay: Biacore (SPR)
human VEGF165 [5] = molecular target: T1, human VEGF165; assay: Biacore 2000, hVEGF165 amine-coupled on C1 chip, antibody injected, 1:1 fit
Protocol: (§3) The VEGF binding affinity of these IgGs was tested on a Biacore 2000® by injecting the antibodies over a very low density antigen surface. Human or murine VEGF₁₆₅ was immobilized via standard amine coupling methods to flow cells on a C1 (planar carboxy surface) chip. Approximately 85 RU of each antigen was immobilized and a reference flow cell was activated and blocked. Antibodies were injected over the chip surface for 400 seconds at two different concentrations, after which dissociation was monitored. Data was analyzed by Scrubber® using double referencing and fitting with a 1:1 interaction. Regenerations were performed with 90 mM HCl with 500 mM NaCl.
Target sequence in this assay (P15692 other isoform, or with tags, fused parts or gaps limits assumed): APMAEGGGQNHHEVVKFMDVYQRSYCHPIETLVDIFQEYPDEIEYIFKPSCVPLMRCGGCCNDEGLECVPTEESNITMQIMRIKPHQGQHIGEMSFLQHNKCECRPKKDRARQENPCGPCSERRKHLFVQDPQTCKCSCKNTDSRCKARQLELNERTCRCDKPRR

murine VEGF165 [6] = molecular target: T6, murine VEGF165; assay: Biacore 2000, mVEGF165 amine-coupled on C1 chip, antibody injected
Protocol: as §3

human VEGF165 [7] = molecular target: T1, human VEGF165; assay: cell-based or functional assay; remark: listed apart in the source
Target sequence in this assay (P15692 other isoform, or with tags, fused parts or gaps limits assumed): as above

human VEGF165 [8] = molecular target: T1, human VEGF165; assay: ELISA on hVEGF165; unstressed XPA.10.064.06
human VEGF165 [9] = molecular target: T1, human VEGF165; assay: ELISA on hVEGF165; unstressed XPA.10.064.06; remark: listed apart in the source
human VEGF165 [10] = molecular target: T1, human VEGF165; assay: ELISA on hVEGF165; XPA.10.064.06 after chemical stress (tBHP) in the presence of methionine
Protocol: (§4) For chemical stress, the antibodies were incubated overnight at room temperature with 0.1% tBHP in the presence or absence of 5 mM L-methionine. For thermal stress, the antibodies were incubated in polysorbate for four weeks at 40° C. in the presence or absence of 5 mM L-methionine. The ability of the antibodies to bind hVEGF₁₆₅ was analyzed by Biacore and ELISA.

human VEGF165 [11] = molecular target: T1, human VEGF165; assay: ELISA on hVEGF165; XPA.10.064.06 after thermal stress without methionine
Protocol: as §4

human VEGF165 [12] = molecular target: T1, human VEGF165; assay: ELISA on hVEGF165; XPA.10.064.06 after thermal stress in the presence of methionine
Protocol: as §4

human VEGF165 [13] = molecular target: T1, human VEGF165; assay: ELISA on hVEGF165; XPA.10.064.06 after chemical stress (tBHP) without methionine
Protocol: as §4

“control polyclonal goat anti-human VEGF (antibody)” was tested, and the Raw data (ELISA signal) (human VEGF165 [1]) was 2.45, the fold binding over CHO background (human VEGF165 [1]) was 26.9 fold and the Raw data (ELISA signal) (hVEGF121-G92A) was 2.18. The fold binding over CHO background (hVEGF121-G92A) was 23.9 fold, the Raw data (ELISA signal) (hVEGF121-G88S) was 0.769 and the fold binding over CHO background (hVEGF121-G88S) was 8.4 fold. For the same molecule, the Raw data (ELISA signal) (hVEGF121-Q89A) was 0.985, the fold binding over CHO background (hVEGF121-Q89A) was 10.8 fold and the Raw data (ELISA signal) (hVEGF121-M81A) was 1.71. For the same molecule, the fold binding over CHO background (hVEGF121-M81A) was 18.8 fold, the Raw data (ELISA signal) (murine VEGF165 [2]) was 0.0939 and the fold binding over CHO background (murine VEGF165 [2]) was 1 fold. For the same molecule, the Raw data (ELISA signal) (wild-type hVEGF121) was 2.56 and the fold binding over CHO background (wild-type hVEGF121) was 28 fold.

B1: Bevacizumab (antibody, V domains shown)
VH: EVQLVESGGGLVQPGGSLRLSCAASGYTFTNYGMNWVRQAPGKGLEWVGWINTYTGEPTYAADFKRRFTFSLDTSKSTAYLQMNSLRAEDTAVYYCAKYPHYYGSSHWYFDVWGQGTLVTVSS
VL: DIQMTQSPSSLSASVGDRVTITCSASQDISNYLNWYQQKPGKAPKVLIYFTSSLHSGVPSRFSGSGSGTDFTLTISSLQPEDFATYYCQQYSTVPWTFGQGTKVEIK
For B1, the “Raw data (ELISA signal)” value (murine VEGF165 [2]) was 0.0843.

B2: XPA.10.064 scFv-Fc (Fc fusion, part only; not given: linker, gamma-2 Fc, junction, not shown: another chain or arm of the molecule; a dimerising Fc or GST; small tags and cut ends)
VH: EVQLVQSGAEVRKPGASVKVSCKASGYSFTGHYIHWVRQAPGQGLEWMGWINPYSGGTNFPREFQGRVTMTRDTSVNTVYMELTRLTSDDTSVYYCARDHRIVGGLDYWGQGTLVTVSS
VL: SYVLTQPPSASGTPGQRVTISCSGSSSNIGINYVYWYQQLPGTAPKLLIYRNDQRPSGVPDRFSGSKSGTSASLAISGLRSEDEADYYCATWDDSLSGVVFGGGTKVTVL
Work on B2 yielded an HPP: sf21-hVEGF165, scFvFc (IC50) (human VEGF165 [3]) of 0.41 µg/mL.

B3: XPA.10.064 after oxidation with tert-butylhydroperoxide (antibody, V domains shown)
VH: B2 VH
VL: B2 VL
modifications: partial methionine oxidation after tBHP: Met-48 39%, Met-70 0%, Met-81 28%
notes: also called oxidized XPA.10.064
B3: binds (human VEGF165 [4]).

B4: XPA.10.064.07 IgG2 (antibody, V domains shown)
VH: B2 VH with H100E, R101M, I102H
VL: B2 VL
notes: IgG2
In the case of B4, the Kd (human VEGF165 [5]) is reported as 0.0349 nM, the koff (human VEGF165 [5]) is reported as 6.65e-06 s⁻¹ and the kon (human VEGF165 [5]) is reported as 207000 M⁻¹ s⁻¹. For the same molecule, the Kd (murine VEGF165 [6]) was 130 nM and the “HUVEC proliferation, geometric mean IC50” value (human VEGF165 [7]) was 0.129 nM.

B5: XPA.10.064.04 IgG2 (antibody, V domains shown)
VH: B2 VH with H100E, R101M, I102Q, V103N
VL: B2 VL
notes: IgG2
With B5 the Kd (human VEGF165 [5]) was 0.197 nM, the koff (human VEGF165 [5]) was 2.94e-05 s⁻¹ and the kon (human VEGF165 [5]) was 150000 M⁻¹ s⁻¹.

B6: XPA.10.064.03 IgG2 (antibody, V domains shown)
VH: B2 VH with H100Q, R101M, I102V, V103H
VL: B2 VL
notes: IgG2
B6 gave a Kd (human VEGF165 [5]) of 0.0917 nM, a koff (human VEGF165 [5]) of 1.8e-05 s⁻¹ and a kon (human VEGF165 [5]) of 196000 M⁻¹ s⁻¹. For the same molecule, the “HUVEC proliferation, geometric mean IC50” value (human VEGF165 [7]) was 0.174 nM.

B7: XPA.10.064.06 IgG2 (antibody, V domains shown)
VH: B2 VH with H100E, R101M, I102T, V103R
VL: B2 VL
notes: IgG2
B7 was tested, and the “EC50 (read off the curve)” value (human VEGF165 [8]) was ~0.006 µg/mL, the Kd (human VEGF165 [5]) was 0.121 nM and the koff (human VEGF165 [5]) was 2.07e-05 s⁻¹. The kon (human VEGF165 [5]) was 178000 M⁻¹ s⁻¹, the Kd (murine VEGF165 [6]) was 208 nM and the “HUVEC proliferation, geometric mean IC50” value (human VEGF165 [7]) was 0.173 nM. The “EC50 (read off the curve)” value (human VEGF165 [9]) was ~0.006 µg/mL.

B8: XPA.10.064.06 after oxidation (chemical stress with tBHP or thermal stress) (antibody, V domains shown)
VH: B2 VH with H100E, R101M, I102T, V103R
VL: B2 VL
modifications: partial methionine oxidation; after tBHP: Met-48 20%, Met-70 0%, Met-81 14%, Met-101 66%; degree after thermal stress not given
notes: also called oxidized XPA.10.064.06
With B8 the “EC50 (read off the curve)” value (human VEGF165 [10]) was ~0.02 µg/mL, the “EC50 (read off the curve)” value (human VEGF165 [11]) was ~0.01 µg/mL and the “EC50 (read off the curve)” value (human VEGF165 [12]) was ~0.006 µg/mL. The “EC50 (read off the curve)” value (human VEGF165 [13]) was ~0.05 µg/mL.

B9: XPA.10.064.10 IgG2 (antibody, V domains shown)
VH: B2 VH with H100E, R101M, I102V, V103W
VL: B2 VL
notes: IgG2
Molecule B9 has a Kd (human VEGF165 [5]) of 0.0556 nM, a koff (human VEGF165 [5]) of 1.16e-05 s⁻¹ and a kon (human VEGF165 [5]) of 216000 M⁻¹ s⁻¹. The “HUVEC proliferation, geometric mean IC50” value (human VEGF165 [7]) was 0.139 nM.
